Data on 2 molecules can be found in PMC2859543.

The test concerns the target GST-cLkh1^ΔLA (LAMMER motif-deleted Lkh1 catalytic domain) (S. pombe). The experiment in a line: pull-down.

B1: His6-tagged Tup12 (natural protein)
chain: MATSNVSSRVNELLEAVKKEFEDICQKTKTVEAQKDDFEYKAMISAQINEMALMKQTVMDLEMQQSKVKDRYEEEITSLKAQLEARRKEIASGVVPQSSKTKHGRNSVSFGKYGNAGPFNSDNSSKPLILNNGSSGGTPKNLRSPAIDSDGTVLAPIQTSNVDLGSQYYSSPHVRPAVGATMAGSAMRTFPSNLPLGHPPPPSDSANSSVTPIAAPLVVNGKVSGNPPYPAEIIPTSNVPNREEKDWTVTSNVPNKEPPISVQLLHTLEHTSVICYVRFSADGKFLATGCNRAAMVFNVETGKLITLLQEESSKREGDLYVRSVAFSPDGKYLATGVEDQQIRIWDIAQKRVYRLLTGHEQEIYSLDFSKDGKTLVSGSGDRTVCLWDVEAGEQKLILHTDDGVTTVMFSPDGQFIAAGSLDKVIRIWTSSGTLVEQLHGHEESVYSVAFSPDGKYLVSGSLDNTIKLWELQCVSNVAPSMYKEGGICKQTFTGHKDFILSVTVSPDGKWIISGSKDRTIQFWSPDSPHSQLTLQGHNNSVISVAVSPNGHCFATGSGDLRARIWSYEDL
The molecule B1 yielded a percent of the substrate-binding activity of GST-cLkh1 and GST-cLkh1^K391R of 30%.

B2: His6-tagged Tup11 (natural protein)
chain: MASVEDATKVQEMLDALKAEYNALAHHSFASKARGNDYESSMIQSQIQEIEAFRKTVDDMYEKQKSIRETYEKDINKLKRELEELGVEANTASYRNRGERSELAASNNQVTHIDQEHPSQTKSTSQPPSNHLPAFQQIPPIHQSAYPQNNVAEVLMPPIPPSVEASSGQNFNQGIASQNPAISTSNLPSTTPLYIPPVNYGANQVSQQPNPQLPGVSNYYNPSATSKPAVNVQPPRIPTKATPSAEPSMTASANAGSISQAGPDGEYQGREQIAPVSDTEAARKTTSQSWYVTYNPACKRVFNINLVHTLEHPSVVCCVKFSNNGKYLATGCNQAANVFDVQTGKKLFTLHEESPDPSRDLYVRTIAFSPDGKYLVTGTEDRQIKLWDLSTQKVRYVFSGHEQDIYSLDFSHNGRFIVSGSGDRTARLWDVETGQCILKLEIENGVTAIAISPNDQFIAVGSLDQIIRVWSVSGTLVERLEGHKESVYSIAFSPDSSILLSGSLDKTIKVWELQATRSVGLSAIKPEGICKATYTGHTDFVLSVAVSPDSRWGLSGSKDRSMQFWDLQTGQSYLTCQGHKNSVISVCFSPDGRQFASGSGDLRARIWSIDPASP
Consider B2, for which the percent of the substrate-binding activity of GST-cLkh1 and GST-cLkh1^K391R stood at 30%.
